Assay results taken from publication PMC9352680, “A comprehensive thermodynamic model for RNA binding by the Saccharomyces cerevisiae Pumilio protein PUF4”.
Substitutions are numbered along the chain they refer to. In names and notes the source's numbering stands.

T1: PUF4 RNA-binding domain (Saccharomyces cerevisiae, UniProt P25339 537-888)
T1 sequence: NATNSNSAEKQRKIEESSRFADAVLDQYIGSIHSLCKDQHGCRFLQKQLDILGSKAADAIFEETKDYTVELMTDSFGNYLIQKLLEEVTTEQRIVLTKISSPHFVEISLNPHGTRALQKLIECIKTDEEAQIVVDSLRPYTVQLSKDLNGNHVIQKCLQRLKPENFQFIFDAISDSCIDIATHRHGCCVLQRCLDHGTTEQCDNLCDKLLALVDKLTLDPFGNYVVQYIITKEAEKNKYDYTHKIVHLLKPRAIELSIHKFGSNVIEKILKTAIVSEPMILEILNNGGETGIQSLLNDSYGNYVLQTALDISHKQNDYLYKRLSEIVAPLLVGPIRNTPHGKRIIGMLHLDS

B1: Id_iii_S2_P3E.5_K3.1_C3.3_[T-3A]_H3.1_A3.1_F3.1_T3.2 (ssRNA)
RNA: UUUGAUUAAUAUGAUAUCGUUCUUUCUACUUGUAUAUAUAUUCUUUCUCGAUAUCAUAUUAAUCUUU
B2: Id_iii_S2_P3E.8_K3.4_C3.3_[T-3A]_H3.1_A3.2_F3.1_T3.2 (ssRNA)
RNA: B1 RNA with U35A
B3: Id_iii_S2_P3E.5_K3.1_C3.3_[C-2G]_H3.1_A3.1_F3.1_T3.2 (ssRNA)
RNA: B1 RNA with A28U, C29G
B4: Id_iii_S2_P3E.5_K3.1_C3.3_[T-1A]_H3.1_A3.1_F3.1_T3.2 (ssRNA)
RNA: B1 RNA with A28U, U30A
B5: Id_iii_S2_P3E.7_K3.3_C3.3_[T-1G]_H3.3_A3.1_F3.1_T3.2 (ssRNA)
RNA: B1 RNA with A28U, U30G, U31A, G32C, U33A, A34C
B6: Id_iii_S2_P3E.6_K3.2_C3.3_[C-2T]_H3.2_A3.1_F3.1_T3.2 (ssRNA)
RNA: B1 RNA with A28U, C29U, G32A
B7: Id_iii_S2_P3E.7_K3.3_C3.3_[T-3G]_H3.3_A3.1_F3.1_T3.2 (ssRNA)
RNA: B1 RNA with A28G, U31A, G32C, U33A, A34C
B8: Id_iii_S2_P3E.7_K3.3_C3.3_[C-2G]_H3.3_A3.1_F3.1_T3.2 (ssRNA)
RNA: B1 RNA with A28U, C29G, U31A, G32C, U33A, A34C
B9: Id_iii_S2_P3E.7_K3.3_C3.3_[T-1C]_H3.3_A3.1_F3.1_T3.2 (ssRNA)
RNA: B1 RNA with A28U, U30C, U31A, G32C, U33A, A34C
B10: Id_iii_S2_P3E.6_K3.2_C3.3_[T-3A]_H3.2_A3.1_F3.1_T3.2 (ssRNA)
RNA: B1 RNA with G32A
B11: Id_iii_S2_P3E.6_K3.2_C3.3_[T-1A]_H3.2_A3.1_F3.1_T3.2 (ssRNA)
RNA: B1 RNA with A28U, U30A, G32A
B12: Id_iii_S2_P3E.5_K3.1_C3.3_H3.1_A3.1_F3.1_T3.2_[A10G] (ssRNA)
RNA: B1 RNA with A28U, A40G
B13: Id_iii_S2_P3E.6_K3.2_C3.3_[T-1C]_H3.2_A3.1_F3.1_T3.2 (ssRNA)
RNA: B1 RNA with A28U, U30C, G32A
B14: Id_iii_S2_P3E.9_K3.5_C3.3_H3.1_A3.2_F3.2_T3.2_[A10G] (ssRNA)
RNA: B1 RNA with A28U, U35A, U37A, A40G
B15: Id_iii_S2_P3E.5_K3.1_C3.3_H3.1_A3.1_F3.1_T3.2_[T9A] (ssRNA)
RNA: B1 RNA with A28U, U39A
B16: Id_iii_S2_P3E.9_K3.5_C3.3_[T-1G]_H3.1_A3.2_F3.2_T3.2 (ssRNA)
RNA: B1 RNA with A28U, U30G, U35A, U37A
B17: Id_iii_S2_P3E.9_K3.5_C3.3_[T-1C]_H3.1_A3.2_F3.2_T3.2 (ssRNA)
RNA: B1 RNA with A28U, U30C, U35A, U37A
B18: Id_iii_S2_P3E.9_K3.5_C3.3_[T-1A]_H3.1_A3.2_F3.2_T3.2 (ssRNA)
RNA: B1 RNA with A28U, U30A, U35A, U37A
B19: Id_iii_S2_P3E.8_K3.4_C3.3_[C-2A]_H3.1_A3.2_F3.1_T3.2 (ssRNA)
RNA: B1 RNA with A28U, C29A, U35A
B20: Id_iii_S2_P3E.6_K3.2_C3.3_H3.2_A3.1_F3.1_T3.2_[T9C] (ssRNA)
RNA: B1 RNA with A28U, G32A, U39C
B21: Id_iii_S2_P3E.7_K3.3_C3.3_H3.3_A3.1_F3.1_T3.2_[A10C] (ssRNA)
RNA: B1 RNA with A28U, U31A, G32C, U33A, A34C, A40C
B22: Id_iii_S2_P3E.7_K3.3_C3.3_[T-3A]_H3.3_A3.1_F3.1_T3.2 (ssRNA)
RNA: B1 RNA with U31A, G32C, U33A, A34C
B23: Id_iii_S2_P3E.8_K3.4_C3.3_[T-3C]_H3.1_A3.2_F3.1_T3.2 (ssRNA)
RNA: B1 RNA with A28C, U35A
B24: Id_iii_S2_P3E.6_K3.2_C3.3_H3.2_A3.1_F3.1_T3.2_[A10T] (ssRNA)
RNA: B1 RNA with A28U, G32A, A40U
B25: Id_iii_S2_P3E.6_K3.2_C3.3_H3.2_A3.1_F3.1_T3.2_[T9A] (ssRNA)
RNA: B1 RNA with A28U, G32A, U39A
B26: Id_iii_S2_P3E.5_K3.1_C3.3_[C-2T]_H3.1_A3.1_F3.1_T3.2 (ssRNA)
RNA: B1 RNA with A28U, C29U
B27: Id_iii_S2_P4E.5_K4.1_C4.3_[T-3C]_H4.1_A4.1_F4.1_T4.2 (ssRNA)
RNA: UUUGAUUAAUAUGAUAUCGUUCUUUCUCCUUGUAUAUUAGUUUCUUUCUCGAUAUCAUAUUAAUCUUU
B28: Id_iii_S2_P4E.5_K4.1_C4.3_H4.1_A4.1_F4.1_T4.2_[T11C] (ssRNA)
RNA: B27 RNA with C28U, U41C
B29: Id_iii_S2_P4E.6_K4.2_C4.3_[T-1G]_H4.2_A4.1_F4.1_T4.2 (ssRNA)
RNA: B27 RNA with C28U, U30G, G32A
B30: Id_iii_S2_P4E.6_K4.2_C4.3_[T-1A]_H4.2_A4.1_F4.1_T4.2 (ssRNA)
RNA: B27 RNA with C28U, U30A, G32A
B31: Id_iii_S2_P4E.5_K4.1_C4.3_[T-1G]_H4.1_A4.1_F4.1_T4.2 (ssRNA)
RNA: B27 RNA with C28U, U30G
B32: Id_iii_S2_P4E.6_K4.2_C4.3_[C-2T]_H4.2_A4.1_F4.1_T4.2 (ssRNA)
RNA: B27 RNA with C28U, C29U, G32A
B33: Id_iii_S2_P4E.5_K4.1_C4.3_[C-2T]_H4.1_A4.1_F4.1_T4.2 (ssRNA)
RNA: B27 RNA with C28U, C29U
B34: Id_iii_S2_P4E.5_K4.1_C4.3_H4.1_A4.1_F4.1_T4.2_[G10A] (ssRNA)
RNA: B27 RNA with C28U, G40A
B35: Id_iii_S2_P4E.5_K4.1_C4.3_H4.1_A4.1_F4.1_T4.2_[G10C] (ssRNA)
RNA: B27 RNA with C28U, G40C
B36: Id_iii_S2_P4E.5_K4.1_C4.3_[C-2A]_H4.1_A4.1_F4.1_T4.2 (ssRNA)
RNA: B27 RNA with C28U, C29A
B37: Id_iii_S2_P4E.6_K4.2_C4.3_H4.2_A4.1_F4.1_T4.2_[G10A] (ssRNA)
RNA: B27 RNA with C28U, G32A, G40A
B38: Id_iii_S2_P4E.6_K4.2_C4.3_H4.2_A4.1_F4.1_T4.2_[G10C] (ssRNA)
RNA: B27 RNA with C28U, G32A, G40C
B39: Id_iii_S2_P4E.5_K4.1_C4.3_H4.1_A4.1_F4.1_T4.2_[G10T] (ssRNA)
RNA: B27 RNA with C28U, G40U
B40: Id_iii_S2_P4E.5_K4.1_C4.3_[T-1C]_H4.1_A4.1_F4.1_T4.2 (ssRNA)
RNA: B27 RNA with C28U, U30C
B41: Id_iii_S2_P4E.6_K4.2_C4.3_H4.2_A4.1_F4.1_T4.2_[G10T] (ssRNA)
RNA: B27 RNA with C28U, G32A, G40U
B42: Id_iii_S2_P4E.6_K4.2_C4.3_[C-2G]_H4.2_A4.1_F4.1_T4.2 (ssRNA)
RNA: B27 RNA with C28U, C29G, G32A
B43: Id_iii_S2_P4E.6_K4.2_C4.3_[T-3C]_H4.2_A4.1_F4.1_T4.2 (ssRNA)
RNA: B27 RNA with G32A
B44: Id_iii_S2_P4E.5_K4.1_C4.3_[C-2G]_H4.1_A4.1_F4.1_T4.2 (ssRNA)
RNA: B27 RNA with C28U, C29G

Molecular target: T1, PUF4 RNA-binding domain
Assay: Mg; RNA-MaP; 20 mM Na-HEPES pH 7.4, 30 mM KOAc, 0.75 mM MgCl2, 0.1% Tween-20, 5% glycerol, 0.1 mg/mL BSA, 2 mM DTT; 25 C; 0.0125-409.6 nM protein
Settings: tags: N-His6-TEV cleaved; C-SNAP kept, Cy3B-labelled; label: tethered on chip by stalled RNA polymerase

Binder	Kd
UCUCUUUCUUGUAAUAAAAAAUCUCUU (ssRNA) [Id_iii_S1_P5E.9_K5.5_C5.3_H5.1_A5.2_F5.2_T5.2_[T11A]]	412 nM
UCUCUUUGUCUUGUUAUCUCUU (ssRNA) [Ib_S1_P5E.1_K5.1_C5.1_H5.1_[A4C]_A5.1_[A7G]_F5.1_T5.1]	475 nM
UCUCUUUGUCUUCUUAUCUCUU (ssRNA) [Ib_S1_P5E.1_K5.1_C5.1_H5.1_[A4C]_A5.1_[A7C]_F5.1_T5.1]	1090 nM
UCUCUUACUUGUAAUAUUAUAUCUCUU (ssRNA) [Id_iii_S1_P5E.8_K5.4_C5.3_[T-3A]_H5.1_A5.2_F5.1_T5.2]	13.7 nM
UCUCUUUAUUGUAAUAUUAUAUCUCUU (ssRNA) [Id_iii_S1_P5E.8_K5.4_C5.3_[C-2A]_H5.1_A5.2_F5.1_T5.2]	9.11 nM
UCUCUUUCUUGUAAUAUUAAAUCUCUU (ssRNA) [Id_iii_S1_P5E.8_K5.4_C5.3_H5.1_A5.2_F5.1_T5.2_[T11A]]	11.3 nM
UCUCUUUCUUGUAAUAUUAUGUCUCUU (ssRNA) [Id_iii_S1_P5E.8_K5.4_C5.3_H5.1_A5.2_F5.1_T5.2_[A12G]]	10 nM
UCUCUUUCCUGUAAUAUUAUAUCUCUU (ssRNA) [Id_iii_S1_P5E.8_K5.4_C5.3_[T-1C]_H5.1_A5.2_F5.1_T5.2]	7.32 nM
UCUCUUUGUCUUUUUAUCUCUU (ssRNA) [Ib_S1_P5E.1_K5.1_C5.1_H5.1_[A4C]_A5.1_[A7T]_F5.1_T5.1]	113 nM
UCUCUUUGUUUUGUUAUCUCUU (ssRNA) [Ib_S1_P5E.1_K5.1_C5.1_H5.1_[A4T]_A5.1_[A7G]_F5.1_T5.1]	426 nM
UCUCUUUCUUGUAAUAUUAUCUCUCUU (ssRNA) [Id_iii_S1_P5E.8_K5.4_C5.3_H5.1_A5.2_F5.1_T5.2_[A12C]]	6.29 nM
B1	1.18 nM
B2	3.74 nM
B3	2.14 nM
B4	1.7 nM
B5	430 nM
B6	111 nM
B7	156 nM
B8	0.454 nM
B9	321 nM

Binder	Kd
B10	91.2 nM
B11	122 nM
B12	2.21 nM
B13	28.7 nM
B14	661 nM
B15	3.53 nM
B16	32.2 nM
B17	11.9 nM
B18	28.6 nM
B19	26.3 nM
B20	168 nM
B21	495 nM
B22	213 nM
B23	2.54 nM
B24	43.5 nM
B25	321 nM
B26	1.52 nM
B27	0.191 nM
B28	0.401 nM
B29	10.9 nM

Binder	Kd
B30	6.83 nM
B31	0.201 nM
B32	20.2 nM
B33	1.08 nM
B34	0.37 nM
B35	0.519 nM
B36	0.601 nM
B37	10.7 nM
B38	5.27 nM
B39	0.203 nM
B40	0.205 nM
B41	3.84 nM
B42	13.3 nM
B43	3.56 nM
B44	0.508 nM
UCUCUUUCUUGUAAUAUUAUUUCUCUU (ssRNA) [Id_iii_S1_P5E.8_K5.4_C5.3_H5.1_A5.2_F5.1_T5.2_[A12T]]	7.29 nM
UCUCUUUGUUUUUUUAUCUCUU (ssRNA) [Ib_S1_P5E.1_K5.1_C5.1_H5.1_[A4T]_A5.1_[A7T]_F5.1_T5.1]	142 nM
UCUCUUUCUUGUAAUAAAAUCUCUCUU (ssRNA) [Id_iii_S1_P5E.9_K5.5_C5.3_H5.1_A5.2_F5.2_T5.2_[A12C]]	411 nM
